Laboratory results reported in patent US20100129288A1.

Biological target: neurofascin on purified rat DRG neurons (rat) (UniProt P97685)
Assay: cell-based or functional assay

Chain of UniProt P97685 (P97685 25-1240, form in doubt): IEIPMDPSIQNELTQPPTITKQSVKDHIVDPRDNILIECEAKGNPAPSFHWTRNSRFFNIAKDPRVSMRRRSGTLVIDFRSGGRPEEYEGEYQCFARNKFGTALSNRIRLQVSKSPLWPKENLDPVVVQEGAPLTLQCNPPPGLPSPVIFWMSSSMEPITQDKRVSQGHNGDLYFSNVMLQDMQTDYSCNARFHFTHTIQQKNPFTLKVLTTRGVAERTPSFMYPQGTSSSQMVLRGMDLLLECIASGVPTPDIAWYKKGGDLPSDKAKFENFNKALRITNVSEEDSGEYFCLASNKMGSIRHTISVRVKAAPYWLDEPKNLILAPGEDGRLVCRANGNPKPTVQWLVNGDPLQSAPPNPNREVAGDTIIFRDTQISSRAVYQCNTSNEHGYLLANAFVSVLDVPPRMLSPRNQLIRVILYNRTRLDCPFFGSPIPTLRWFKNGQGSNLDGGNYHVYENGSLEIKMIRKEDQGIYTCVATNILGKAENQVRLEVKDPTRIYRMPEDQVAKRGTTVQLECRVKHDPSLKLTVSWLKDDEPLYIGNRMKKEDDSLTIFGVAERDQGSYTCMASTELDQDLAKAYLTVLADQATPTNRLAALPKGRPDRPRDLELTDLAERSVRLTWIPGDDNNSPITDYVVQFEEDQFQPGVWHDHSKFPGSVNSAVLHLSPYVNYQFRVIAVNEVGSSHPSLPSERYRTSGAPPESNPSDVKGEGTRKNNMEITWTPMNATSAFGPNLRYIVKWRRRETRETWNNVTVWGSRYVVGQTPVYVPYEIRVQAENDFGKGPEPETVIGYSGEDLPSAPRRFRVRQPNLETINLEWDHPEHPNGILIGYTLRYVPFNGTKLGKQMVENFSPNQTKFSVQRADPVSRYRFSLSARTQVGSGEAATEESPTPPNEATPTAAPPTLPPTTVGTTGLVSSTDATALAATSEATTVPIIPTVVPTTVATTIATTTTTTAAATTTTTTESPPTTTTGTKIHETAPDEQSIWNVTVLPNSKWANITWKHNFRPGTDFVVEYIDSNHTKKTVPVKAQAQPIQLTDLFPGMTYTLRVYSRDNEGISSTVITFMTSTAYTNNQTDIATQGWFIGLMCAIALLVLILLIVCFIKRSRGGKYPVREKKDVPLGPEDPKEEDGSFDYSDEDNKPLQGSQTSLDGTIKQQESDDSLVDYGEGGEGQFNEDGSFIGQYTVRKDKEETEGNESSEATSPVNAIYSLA

B1: OLF-Fc (Fc-fusion protein containing the olfactomedin domain of gliomedin) (Fc fusion, part only; not given: human Fc, part only)
chain, part: NDDTLVGRADEKVNERHSPQTEPMITSIGNPAQVLKVKETFGTWLRESANRSDDRIWVTEHFSGIMVKEFEDLPALLNSSFTLLHLPHYFHGCGHAVYNNSLYYHKGGSNTIVRFEFGKETPQTLKLEDALYFDRKYLFANSKTYFNIAVDEKGLWIIYASSVDGSSILVAQLDERTFSVLRHINTTYPKSKAGNAFIAQGILYVTDTKDTRVTFAFDLLRGKQINANFGLRMSQSVLAMLSYNMRDQHLYSWEDGHLMLYPVHFSSTAPS
Binder B1 has an OLF-Fc clusters co-localized with neurofascin clusters of 96%.
